{
  "source": "the supplement of paper PMC9170038",
  "data": [
    {"system": "MS2 coat protein", "experiment": "apparent KD of MS2 coat protein, switch ON state; designed switch direction (-1 OFF switch, 1 ON switch): -1; higher = weaker reporter binding", "conditions": "FMN input: 0 or 200 uM; Eterna round: R93 (includes R88 designs)", "summary_of_the_method": "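Designed RNA switches were transcribed on-chip from Illumina sequencing clusters. SNAP-549-labelled MS2 coat protein was titrated onto them in twofold steps from 0.7 or 1.5 nM to 3 µM in 100 mM Tris-HCl pH 7.5, 80 mM KCl, 4 mM MgCl2, either without or with constant ligand. Apparent KD reflects the per-design median of normalised cluster binding-curve fits.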", "units": {"apparent KD of MS2 coat protein": "nM"}, "values": [
      {"sequence": "CUCUUGUGAGGAUAUGAAAGAAAAGAAAAGAAAGAAAAGAAUCAGAAGGCACAUGAGGAUCACCCAUGUAAGAA [EteRNA is fun!]", "apparent KD of MS2 coat protein": 37},
      {"sequence": "AAAAAACAUGAGGAUCACCCAUGUGAGGAUAUGUGAAAAAAAAAAUAAAAAAAAAAAAGCAGAAGGUACAAAAA [LROPPY Exclusion 1 - v03_deltaG=3.94]", "apparent KD of MS2 coat protein": 43.7},
      {"sequence": "AAGAACGUAGGAUAUACUAAAGAAAUGAAAAGAAAUAAAGAACAUGAGGAUCACCCAUGUAGAAGGACGAAGAA [Nebdjefare]", "apparent KD of MS2 coat protein": 29.1},
      {"sequence": "AAGAACUCAGGAUAUACUAAAGAAAUGAAAAGAAAGAAAGAACAUGAGGAUCACCCAUGUAGAAGGGAGAAGAA [Qareh Khawoserre]", "apparent KD of MS2 coat protein": 86.4},
      {"sequence": "AAGGGACAUGAGGAUCACCCAUGUGAGGAUAUGCUAUGGAAAUAAAAAAUAAAACAUAGCAGAAGGCAUAAAAA [Mat - Exclusion 1 - Eli mod - D38]", "apparent KD of MS2 coat protein": 69.3},
      {"sequence": "AAGAAACAUGAGGAUCACCCAUGUGAGGAUAUUCAAGAAAGAAAGAAAGAAAGAAGAAGAAGAAGGCACAAAGG [Lucius Seius Strabo]", "apparent KD of MS2 coat protein": 29},
      {"sequence": "AAAACUGGAGGAUAUACAUGAGGAUCACCCAUGUGUGGGUAUACUGUGUCGGCGUCAGGUAGAAGGCCAAAAAA [Gilly Gone Silly 29 - Jieux - Exclusion 3]", "apparent KD of MS2 coat protein": 146},
      {"sequence": "AAGACUACAGGAUAUACAUGAGGAUCACCCAUGUAACUGACAAGUAGAUGACGGAGAAGUAGAAGGGUAGUCAA [Ruby 36]", "apparent KD of MS2 coat protein": 18.5},
      {"sequence": "CAAGGUGGAGGAUAUACAUGAGGAUCACCCAUGUAAGGACAAUAAAUAAGAUGAAGAAGUAGAAGGCCACUCAA [e3-3]", "apparent KD of MS2 coat protein": 41.5},
      {"sequence": "UAAAAACAUGAGGAUCACCCAUGUAAGGAUAUGCUGAAAAACACGGAAAAAACGUGCAGCAGAAGGUACAAAAU [Mat - Exclusion 1 - Eli mod - D98]", "apparent KD of MS2 coat protein": 19},
      {"sequence": "AAGAAGUCAGGAUAUGCUGCUCGUCACAAAAGUGAUGAGUAGCAGAAGGGACAUGAGGAUCACCCAUGUAAAAA [Opal 33]", "apparent KD of MS2 coat protein": 49.1},
      {"sequence": "AAAUAGCAAGGAUAUACAUGAGGAUCACCCAUGUGACCCAGGUAUGGCAUAGACUAGAGUAGAAGGUGCAAAUA [Mod 5 of Ex 3 Tesla 8 - Jieux - Exclusion 3]", "apparent KD of MS2 coat protein": 88.1},
      {"sequence": "CUCUUGUAAGGAUAUGACUACAUAAAAAAAAAAAAAUGUAGUCAGAAGGUACAUGAGGAUCACCCAUGUACUAA [Brourd - Exclusion 4 - Sub 2]", "apparent KD of MS2 coat protein": 20.8},
      {"sequence": "AAAAAGUGAGGAUAUGCAGUGUCCUGUAGACGCGAGCACUUGUAGAAGGCACAUGAGGAUCACCCAUGUUUAAA [EX4 Malc#28]", "apparent KD of MS2 coat protein": 24},
      {"sequence": "AACUGACAUGAGGAUCACCCAUGUCAGGAUAUGCUUCAUAAAAACAAACAAAAAUGAUGCAGAAGGGACAUGGA [Design 30 :P Sub-opt 6]", "apparent KD of MS2 coat protein": 19.6},
      {"sequence": "AACUGACAUGAGGAUCACCCAUGUCAGGAUAUGACUUCGAAAAAUAAAAUAAACGAUGUCAGAAGGGACAUGGG [Design 68: Sub-opt O]", "apparent KD of MS2 coat protein": 21.2},
      {"sequence": "AAGCCACAUGAGGAUCACCCAUGUAAGGAUAUGAACGAAAAUAAAUAAAAAUAAAAGUUCAGAAGGUACAAAAA [66%, Wbt, 23]", "apparent KD of MS2 coat protein": 27.1},
      {"sequence": "AACAAGACAGGAUAUACAUGAGGAUCACCCAUGUCACAACAAAGCAGCGCAACACAAAGUAGAAGGGUCAUGGA [Ruby 11]", "apparent KD of MS2 coat protein": 81.2},
      {"sequence": "AACUGGUGAGGAUAUCUGGAUAGGAAAAAGAAAACCUAUCCAGAGAAGGCACAUGAGGAUCACCCAUGUAAAAA [JL cataway mod 9]", "apparent KD of MS2 coat protein": 56},
      {"sequence": "AAAAUGUCAGGAUAUGUAGCAAAAGGUGAUCAAAAAAAGCUACAGAAGGGACAUGAGGAUCACCCAUGUAAAAA [Ex4: 935]", "apparent KD of MS2 coat protein": 1020},
      {"sequence": "AGGGAGUCAGGAUAUCGGAAAAAAAAACAACGAAAAAAAGACGAGAAGGGACAUGAGGAUCACCCAUGUAAGAA [milkweed 16]", "apparent KD of MS2 coat protein": 41.4},
      {"sequence": "GACACCGGAGGAUAUACAAGUCCUUACUGUCUAAAACCAUGACAUGAGGAUCACCCAUGUAGAAGGCCGAAAAG [Atbela]", "apparent KD of MS2 coat protein": 63.3},
      {"sequence": "AAAAGUGGAGGAUAUACAUGAGGAUCACCCAUGUGUAAAAAUAAAUACACAAAAGAAAGUAGAAGGCCACAAAG [Mat - Exclusion 3 - Mayanna mod - D117]", "apparent KD of MS2 coat protein": 32.2},
      {"sequence": "AAGAUCAGAGGAUAUACAGAAGGUGAUGAAAACAUCGCCAAACAUGAGGAUCACCCAUGUAGAAGGCUGAUCAA [JL EX2 2]", "apparent KD of MS2 coat protein": 119},
      {"sequence": "CAGUACUGAGGAUAUACAUGAGGAUCACCCAUGUGGUCCAGCUAGGAAACUAGCACGUGUAGAAGGCAGUACUG [Ex3: 840]", "apparent KD of MS2 coat protein": 29.5},
      {"sequence": "AAAAGGUGAGGAUAUAUGAAAAAAAAAAAAAAAAAAAAAAAAUAGAAGGCACAUGAGGAUCACCCAUGUAAAAA [LROPPY Exclusion 4 - v04_ on a whim]", "apparent KD of MS2 coat protein": 36.9},
      {"sequence": "AACAAACAUGAGGAUCACCCAUGUAAGGAUAUGCGACAAAAACAAAAAACAAAAAAAAGCAGAAGGUACAACAA [Amethyst 100]", "apparent KD of MS2 coat protein": 23.4},
      {"sequence": "GCUUGUCUAGGAUAUACAUGAGGAUCACCCAUGUGAGAGAAAAAAGUGAGAAAGAAAAGUAGAAGGAGGUGAGG [salish99-ex3-81]", "apparent KD of MS2 coat protein": 28.4},
      {"sequence": "AAAAAUGGAGGAUAUACAUGAGGAUCACCCAUGUGUGACUAUACUAAGCGCUCCUCAGGUAGAAGGCCAAAAAA [Gilly Gone Silly 16 - Jieux - Exclusion 3]", "apparent KD of MS2 coat protein": 83.5},
      {"sequence": "AAAGUGUGAGGAUAUGUCAAAGGUCACGAAAGUGACAAAGGACAGAAGGUACAUGAGGAUCACCCAUGUAAAAA [65% + different segment]", "apparent KD of MS2 coat protein": 39.8},
      {"sequence": "AGCUAGAGAGGAUAUACAUAAAAAAAAAAAGUCUGAUCCCUACAUGAGGAUCACCCAUGUAGAAGGCUCUGGCA [Ex2 Design 157: Sub-opt 21]", "apparent KD of MS2 coat protein": 38.1},
      {"sequence": "AAGAAGGGAGGAUAUACAAAAUAAAAGAAAAGAAAGAAAGAACAUGAGGAUCACCCAUGUAGAAGGUCCAAGAA [Imyremeshaw]", "apparent KD of MS2 coat protein": 48.1},
      {"sequence": "AAAAAACAUGAGGAUCACCCAUGUGAGGAUAUCGAGAAGAAGAAGAAGAAGAAGAGAACGAGAAGGCACAAAAA [Exclusion 1 - G's]", "apparent KD of MS2 coat protein": 25.8},
      {"sequence": "AACAGACAUGAGGAUCACCCAUGUGAGGAUAUCCCAAUCGAUAGAACUAGAAUGACAAGGAGAAGGCACAGCAA [JR_Exc001_Sub005]", "apparent KD of MS2 coat protein": 70.1},
      {"sequence": "AAAUUAGGAGGAUAUACAUGAGGAUCACCCAUGUGACGAUGUUACUGCAUGAAGCCAAGUAGAAGGUCUAAGAA [Lacelaatdi]", "apparent KD of MS2 coat protein": 24.7},
      {"sequence": "AGGAAACAUGAGGAUCACCCAUGUCAGGAUAUUGAAAAGAAAAGAAAAGAAAGAAGAACAAGAAGGGACAAGAA [Mekh]", "apparent KD of MS2 coat protein": 27.2},
      {"sequence": "AGUUGGCGAGGAUAUACAUGAGGAUCACCCAUGUGAGAGAAAUAAGUGAGAAAGAAAAGUAGAAGGCGCUCACA [JL Lego Mod 17]", "apparent KD of MS2 coat protein": 68},
      {"sequence": "AAGAAGCAAGGAUAUACAUGAGGAUCACCCAUGUAAAAGAAAGAAAAGGGAAAGAAAAGUAGAAGGUGCGAAAA [Ruby 70]", "apparent KD of MS2 coat protein": 29.9},
      {"sequence": "AGAAAACAUGAGGAUCACCCAUGUAAGGAUAUGCUGAAAAAACACUGGAAACAGUGCAGCAGAAGGUACAAAGA [Mat - Exclusion 1 - Eli mod - D99]", "apparent KD of MS2 coat protein": 22.1},
      {"sequence": "AGUUGGCGAGGAUAUACAUGAGGAUCACCCAUGUAAAAUAAAUAAAAAAUAAGGGAAAGUAGAAGGCGCUGACA [73%, Moding Norbert Elias, 14]", "apparent KD of MS2 coat protein": 46.5},
      {"sequence": "AACAGUACAGGAUAUACAUGAGGAUCACCCAUGUAAAGGGAAUAAAACUAAAAUAAAAGUAGAAGGGUACUGGA [Moding Maslow revisited (73) 20]", "apparent KD of MS2 coat protein": 50.9},
      {"sequence": "AAGAAGUGAGGAUAUGCUGCUCGUCACUUGCGUGAUGAGUAGCAGAAGGCACAUGAGGAUCACCCAUGUAAAAA [Mat - Exaclusion 4 - Eli mod - D2]", "apparent KD of MS2 coat protein": 34.8},
      {"sequence": "AGUCAGAGAGGAUAUACAUGGAAAAAAAAAGUAAGAUCCCUACAUGAGGAUCACCCAUGUAGAAGGCUCUGACA [Ex2 Design 138: Sub-opt 2]", "apparent KD of MS2 coat protein": 27.5},
      {"sequence": "AAGAAACAUGAGGAUCACCCAUGUGAGGAUAUACAAAAGAAAAGAAAAGAAAGAAGAAGUAGAAGGCACAAAGG [Djedkare Shemai]", "apparent KD of MS2 coat protein": 22.5}
    ]}
  ]
}
